Test results: US20260242735A1 (UNIVERSIT T BASEL, published 2026)

How the values were obtained:
human CD33 W22R = human CD33 W22R (human, UniProt P20138 18-364); test: flow cytometry, transfected cells
human CD33 W22E = human CD33 W22E (human, UniProt P20138 18-364); test: flow cytometry, transfected cells
human CD33 W22P = human CD33 W22P (human, UniProt P20138 18-364); test: flow cytometry, transfected cells
human CD33 W22T = human CD33 W22T (human, UniProt P20138 18-364); test: flow cytometry, transfected cells
[1] = molecular target: human CD33 extracellular region Y50S (human, UniProt P20138 18-259); test: BLI Octet, IgG captured on AHC, CD33 analyte;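 further: CD33 variants and wild type run as analyte at 5, 50 and 500 nM, 700 s association then 1200 s dissociation, buffer-only reference subtracted, global 1:1 fit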
[2] = molecular target: human CD33 extracellular region N20E (human, UniProt P20138 21-259); test: BLI Octet, IgG captured on AHC, CD33 analyte;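 further: CD33 variants and wild type run as analyte at 5, 50 and 500 nM, 700 s association then 1200 s dissociation, buffer-only reference subtracted, global 1:1 fit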
[3] = molecular target: human CD33 extracellular region F21N (human, UniProt P20138 22-259); test: BLI Octet, IgG captured on AHC, CD33 analyte;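 further: CD33 variants and wild type run as analyte at 5, 50 and 500 nM, 700 s association then 1200 s dissociation, buffer-only reference subtracted, global 1:1 fit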
[4] = molecular target: human CD33 extracellular region F44P (human, UniProt P20138 18-259); test: BLI Octet, IgG captured on AHC, CD33 analyte;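 further: CD33 variants and wild type run as analyte at 5, 50 and 500 nM, 700 s association then 1200 s dissociation, buffer-only reference subtracted, global 1:1 fit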
[5] = molecular target: human CD33 extracellular region Y50E (human, UniProt P20138 18-259); test: BLI Octet, IgG captured on AHC, CD33 analyte
[6] = molecular target: human CD33 extracellular region F21Q (human, UniProt P20138 22-259); test: BLI Octet, IgG captured on AHC, CD33 analyte
[7] = molecular target: human CD33 extracellular region W22S (human, UniProt P20138 18-259); test: BLI Octet, IgG captured on AHC, CD33 analyte
[8] = molecular target: human CD33 extracellular region N20D (human, UniProt P20138 21-259); test: BLI Octet, IgG captured on AHC, CD33 analyte
[9] = molecular target: human CD33 extracellular region F21M (human, UniProt P20138 22-259); test: BLI Octet, IgG captured on AHC, CD33 analyte
[10] = molecular target: human CD33 extracellular region Y50K (human, UniProt P20138 18-259); test: BLI Octet, IgG captured on AHC, CD33 analyte
[11] = molecular target: human CD33 extracellular region N20H (human, UniProt P20138 21-259); test: BLI Octet, IgG captured on AHC, CD33 analyte
[12] = molecular target: human CD33 extracellular region H45Y (human, UniProt P20138 18-259); test: BLI Octet, IgG captured on AHC, CD33 analyte
[13] = molecular target: human CD33 extracellular region Y50H_Y49H (human, UniProt P20138 18-259); test: BLI Octet, IgG captured on AHC, CD33 analyte
[14] = molecular target: human CD33 extracellular region W22H (human, UniProt P20138 18-259); test: BLI Octet, IgG captured on AHC, CD33 analyte
[15] = molecular target: human CD33 extracellular region W22K (human, UniProt P20138 18-259); test: BLI Octet, IgG captured on AHC, CD33 analyte
[16] = molecular target: human CD33 extracellular region P48S (human, UniProt P20138 18-259); test: BLI Octet, IgG captured on AHC, CD33 analyte
[17] = molecular target: human CD33 extracellular region W22D (human, UniProt P20138 18-259); test: BLI Octet, IgG captured on AHC, CD33 analyte
[18] = molecular target: human CD33 extracellular region N20S (human, UniProt P20138 21-259); test: BLI Octet, IgG captured on AHC, CD33 analyte
[19] = molecular target: human CD33 extracellular region Y50D (human, UniProt P20138 18-259); test: BLI Octet, IgG captured on AHC, CD33 analyte
[20] = molecular target: human CD33 extracellular region W22R (human, UniProt P20138 18-259); test: BLI Octet, IgG captured on AHC, CD33 analyte
[21] = molecular target: human CD33 extracellular region N100Q (human, UniProt P20138 18-259); test: BLI Octet, IgG captured on AHC, CD33 analyte
[22] = molecular target: human CD33 extracellular region W22T (human, UniProt P20138 18-259); test: BLI Octet, IgG captured on AHC, CD33 analyte
[23] = molecular target: human CD33 extracellular region F21H (human, UniProt P20138 22-259); test: BLI Octet, IgG captured on AHC, CD33 analyte
[24] = molecular target: human CD33 extracellular region F21V (human, UniProt P20138 22-259); test: BLI Octet, IgG captured on AHC, CD33 analyte
[25] = molecular target: human CD33 extracellular region N20V (human, UniProt P20138 21-259); test: BLI Octet, IgG captured on AHC, CD33 analyte
[26] = molecular target: human CD33 extracellular region W22E (human, UniProt P20138 18-259); test: BLI Octet, IgG captured on AHC, CD33 analyte
[27] = molecular target: human CD33 extracellular region Q24R (human, UniProt P20138 18-259); test: BLI Octet, IgG captured on AHC, CD33 analyte
[28] = molecular target: human CD33 extracellular region R119A (human, UniProt P20138 18-259); test: BLI Octet, IgG captured on AHC, CD33 analyte
human CD33 extracellular region R119A, sequence (P20138 other isoform, or with tags, fused parts or gaps R119A R119A): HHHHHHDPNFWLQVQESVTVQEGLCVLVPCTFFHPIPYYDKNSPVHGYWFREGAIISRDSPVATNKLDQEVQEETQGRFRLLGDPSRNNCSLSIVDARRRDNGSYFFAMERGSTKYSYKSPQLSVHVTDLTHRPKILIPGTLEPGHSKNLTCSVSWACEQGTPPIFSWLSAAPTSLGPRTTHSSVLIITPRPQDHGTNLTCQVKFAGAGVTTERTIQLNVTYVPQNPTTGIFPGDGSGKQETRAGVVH

human CD33 extracellular region W22R, sequence (P20138 other isoform, or with tags, fused parts or gaps W22R W22R): as the sequence (P20138 other isoform, or with tags, fused parts or gaps R119A R119A) above, with W11R, A108R counted along it
human CD33 extracellular region F21M, sequence (P20138 other isoform, or with tags, fused parts or gaps F21M F21M): as the sequence (P20138 other isoform, or with tags, fused parts or gaps R119A R119A) above, with F10M, A108R counted along it
human CD33 extracellular region W22K, sequence (P20138 other isoform, or with tags, fused parts or gaps W22K W22K): as the sequence (P20138 other isoform, or with tags, fused parts or gaps R119A R119A) above, with W11K, A108R counted along it
human CD33 extracellular region Y50E, sequence (P20138 other isoform, or with tags, fused parts or gaps Y50E Y50E): as the sequence (P20138 other isoform, or with tags, fused parts or gaps R119A R119A) above, with Y39E, A108R counted along it
human CD33 extracellular region F44P, sequence (P20138 other isoform, or with tags, fused parts or gaps F44P F44P): as the sequence (P20138 other isoform, or with tags, fused parts or gaps R119A R119A) above, with F33P, A108R counted along it
human CD33 extracellular region F21V, sequence (P20138 other isoform, or with tags, fused parts or gaps F21V F21V): as the sequence (P20138 other isoform, or with tags, fused parts or gaps R119A R119A) above, with F10V, A108R counted along it
human CD33 extracellular region N20V, sequence (P20138 other isoform, or with tags, fused parts or gaps N20V N20V): as the sequence (P20138 other isoform, or with tags, fused parts or gaps R119A R119A) above, with N9V, A108R counted along it
human CD33 extracellular region N100Q, sequence (P20138 other isoform, or with tags, fused parts or gaps N100Q N100Q): as the sequence (P20138 other isoform, or with tags, fused parts or gaps R119A R119A) above, with N89Q, A108R counted along it
human CD33 extracellular region Q24R, sequence (P20138 other isoform, or with tags, fused parts or gaps Q24R Q24R): as the sequence (P20138 other isoform, or with tags, fused parts or gaps R119A R119A) above, with Q13R, A108R counted along it
human CD33 extracellular region W22D, sequence (P20138 other isoform, or with tags, fused parts or gaps W22D W22D): as the sequence (P20138 other isoform, or with tags, fused parts or gaps R119A R119A) above, with W11D, A108R counted along it
human CD33 extracellular region F21N, sequence (P20138 other isoform, or with tags, fused parts or gaps F21N F21N): as the sequence (P20138 other isoform, or with tags, fused parts or gaps R119A R119A) above, with F10N, A108R counted along it
human CD33 extracellular region Y50S, sequence (P20138 other isoform, or with tags, fused parts or gaps Y50S Y50S): as the sequence (P20138 other isoform, or with tags, fused parts or gaps R119A R119A) above, with Y39S, A108R counted along it
human CD33 extracellular region N20S, sequence (P20138 other isoform, or with tags, fused parts or gaps N20S N20S): as the sequence (P20138 other isoform, or with tags, fused parts or gaps R119A R119A) above, with N9S, A108R counted along it
human CD33 W22P, sequence (P20138 18-364 W22P limits assumed): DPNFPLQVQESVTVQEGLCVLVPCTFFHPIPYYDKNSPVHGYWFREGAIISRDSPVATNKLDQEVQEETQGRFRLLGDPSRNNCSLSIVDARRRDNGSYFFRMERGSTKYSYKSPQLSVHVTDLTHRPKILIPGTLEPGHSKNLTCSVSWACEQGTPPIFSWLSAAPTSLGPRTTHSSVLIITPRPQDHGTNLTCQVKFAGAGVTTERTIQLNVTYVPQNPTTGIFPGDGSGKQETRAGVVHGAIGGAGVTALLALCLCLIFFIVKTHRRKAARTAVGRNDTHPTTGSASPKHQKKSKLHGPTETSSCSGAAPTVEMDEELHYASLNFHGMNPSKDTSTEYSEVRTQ
human CD33 extracellular region W22E, sequence (P20138 other isoform, or with tags, fused parts or gaps W22E W22E): as the sequence (P20138 other isoform, or with tags, fused parts or gaps R119A R119A) above, with W11E, A108R counted along it
human CD33 W22T, sequence (P20138 18-364 W22T limits assumed): as the sequence (P20138 18-364 W22P limits assumed) above, with P5T counted along it
human CD33 extracellular region N20D, sequence (P20138 other isoform, or with tags, fused parts or gaps N20D N20D): as the sequence (P20138 other isoform, or with tags, fused parts or gaps R119A R119A) above, with N9D, A108R counted along it

| binding result (human CD33 W22R) | binding result (human CD33 W22E) | binding result (human CD33 W22P) | binding result (human CD33 W22T) | % WT binding [1] [%] | % WT binding [2] [%] | % WT binding [3] [%] | % WT binding [4] [%] | % WT binding [5] [%] | % WT binding [6] [%] | % WT binding [7] [%] | % WT binding [8] [%] | % WT binding [9] [%] | % WT binding [10] [%] | % WT binding [11] [%] | % WT binding [12] [%] | % WT binding [13] [%] | % WT binding [14] [%] | % WT binding [15] [%] | % WT binding [16] [%] | Binder | further results |
| --- | --- | --- | --- | --- | --- | --- | --- | --- | --- | --- | --- | --- | --- | --- | --- | --- | --- | --- | --- | --- | --- |
| no binding (tested: below 20%) | no binding (tested: below 20%) | no binding (tested: below 20%) | no binding (tested: below 20%) | 70.9 | 6.04 | 0 | 0 | 120 | 0 | 20.1 | 0 | 0 | 122 | 0 | 35.1 | 84.4 | 55 | 0 | 74 | Refmab #3 (antibody, human IgG1, V domains shown) VH: QVQLVQSGAEVKKPGSSVKVSCKASGYTFTDYNMHWVRQAPGQGLEWIGYIYPYNGGTGYNQKFKSKATITADESTNTAYMELSSLRSEDTAVYYCARGRPAMDYWGQGTLVTVSS VL: DIQMTQSPSSLSASVGDRVTITCRASESVDNYGISFMNWFQQKPGKAPKLLIYAASNQGSGVPSRFSGSGSGTDFTLTISSLQPDDFATYYCQQSKEVPWTFGQGTKVEIK | % WT binding [17]: 0%; % WT binding [18]: 34.4%; % WT binding [19]: 71%; % WT binding [20]: 0%; % WT binding [21]: 124%; % WT binding [22]: 3.39%; % WT binding [23]: 0%; % WT binding [24]: 0%; % WT binding [25]: 6.34%; % WT binding [26]: 0%; % WT binding [27]: 88.4%; % WT binding [28]: 118% |
| – | – | – | – | 22.6 | 100 | 83 | 87.4 | 16 | 89 | 93 | 91.3 | 80 | 0 | 104 | 69.3 | 0 | 112 | 113 | 21.8 | Refmab #4 (antibody, human IgG1, V domains shown) VH: QVQLVQSGAEVKKPGESVKVSCKASGYTFTNYGMNWVKQAPGQGLEWMGWINTYTGEPTYADKFQGRVTMTTDTSTSTAYMEIRNLGGDDTAVYYCARWSWSDGYYVYFDYWGQGTSVTVSS VL: DIVMTQSPDSLTVSLGERTTINCKSSQSVLDSSTNKNSLAWYQQKPGQPPKLLLSWASTRESGIPDRFSGSGSGTDFTLTIDSPQPEDSATYYCQQSAHFPITFGQGTRLEIK | % WT binding [17]: 104%; % WT binding [18]: 84.1%; % WT binding [19]: 0%; % WT binding [20]: 82.8%; % WT binding [21]: 114%; % WT binding [22]: 87.9%; % WT binding [23]: 108%; % WT binding [24]: 101%; % WT binding [25]: 96.5%; % WT binding [26]: 82.8%; % WT binding [27]: 102%; % WT binding [28]: 95% |
| no binding (tested: below 20%) | no binding (tested: below 20%) | no binding (tested: below 20%) | no binding (tested: below 20%) | – | – | – | – | – | – | – | – | – | – | – | – | – | – | – | – | Refmab #6 (antibody, human IgG1, V domains shown) VH: QVQLQQPGAEVVKPGASVKMSCKASGYTFTSYYIHWIKQTPGQGLEWVGVIYPGNDDISYNQKFQGKATLTADKSSTTAYMQLSSLTSEDSAVYYCAREVRLRYFDVWGQGTTVTVSS VL: EIVLTQSPGSLAVSPGERVTMSCKSSQSVFFSSSQKNYLAWYQQIPGQSPRLLIYWASTRESGVPDRFTGSGSGTDFTLTISSVQPEDLAIYYCHQYLSSRTFGQGTKLEIK | – |
| no binding (tested: below 20%) | no binding (tested: below 20%) | no binding (tested: below 20%) | no binding (tested: below 20%) | 75.5 | 3.46 | 0 | 0 | 101 | 0 | 45.9 | 0 | 0 | 101 | 67 | 55 | 76.4 | 106 | 0 | 79.5 | Refmab #1 (antibody, human IgG1, V domains shown, also called hP67.6; Absolute Antibody Cat. No. Ab00283-10.0) VH: EVQLVQSGAEVKKPGSSVKVSCKASGYTITDSNIHWVRQAPGQSLEWIGYIYPYNGGTDYNQKFKNRATLTVDNPTNTAYMELSSLRSEDTAFYYCVNGNPWLAYWGQGTLVTVSS VL: DIQLTQSPSTLSASVGDRVTITCRASESLDNYGIRFLTWFQQKPGKAPKLLMYAASNQGSGVPSRFSGSGSGTEFTLTISSLQPDDFATYYCQQTKEVPWSFGQGTKVEVK | % WT binding [17]: 0%; % WT binding [18]: 37.8%; % WT binding [19]: 71.5%; % WT binding [20]: 26.4%; % WT binding [21]: 107%; % WT binding [22]: 15%; % WT binding [23]: 0%; % WT binding [24]: 0%; % WT binding [25]: 18.6%; % WT binding [26]: 26.4%; % WT binding [27]: 67.9%; % WT binding [28]: 121% |
